Results as given in patent publication US20250346673A1 (DUALITY BIOLOGICS SUZHOU, published 2025).
Values belong to the binder of their own block, whether it stands above or below them.

Experiments:
human BDCA2 [1] = target: T1, human BDCA2 (human, UniProt Q8WTT0 1-213); assay: FACS on CHOK1-hBDCA2 cells; EC50 table under the plot, unit from the x axis (nM) [continued) d.]
T1 construct: whole, on cells; also called hBDCA2; Blood dendritic cell antigen 2
T1 sequence (looked up): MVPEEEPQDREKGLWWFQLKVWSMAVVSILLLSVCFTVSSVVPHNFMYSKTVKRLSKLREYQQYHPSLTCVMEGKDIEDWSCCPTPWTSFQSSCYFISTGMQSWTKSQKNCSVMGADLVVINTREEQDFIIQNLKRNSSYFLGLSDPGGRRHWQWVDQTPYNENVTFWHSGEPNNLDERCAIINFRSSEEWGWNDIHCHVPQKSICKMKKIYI
Experimental: (§1) The cells were recovered and resuspended to 2×10⁶/mL with FACS buffer (PBS+2% FBS). The cells were added to 3799 cell plates (Corning) at 100 μL/well, and the supernatant was discarded after centrifugation at 300 g. The antibodies were serially diluted with FACS buffer (Id.), the diluted antibodies were added to centrifuged cells and the cells were resuspended. The cells were incubated at 4° C. for 1 h. The incubated cells were then centrifuged at […] for 5 min and washed twice with FACS buffer. 100 μL Donkey anti-Mouse IgG (H+L) Highly Cross-Adsorbed Secondary Antibody-Alexa Fluor 488 (Invitrogen, A21202; 1:1000) secondary antibody was added to the cells, which were washed twice with FACS buffer after incubation at 4° C. for 1 h, resuspended with PBS, analyzed with FACS (BD FACS CantoTM II) instrument. The curve was fitted with GraphPad Prism6, and EC₅₀ values were calculated.

cynomolgus BDCA2 [2] = target: T2, cynomolgus BDCA2 (cynomolgus monkey, UniProt A0A2K5UWP4 1-212); assay: FACS on 293F-cynoBDCA2 cells; EC50 table under the plot, unit from the x axis (nM) [continued) d.]
T2 construct: whole, on cells; also called Cyno BDCA2; cynoBDCA2
T2 sequence: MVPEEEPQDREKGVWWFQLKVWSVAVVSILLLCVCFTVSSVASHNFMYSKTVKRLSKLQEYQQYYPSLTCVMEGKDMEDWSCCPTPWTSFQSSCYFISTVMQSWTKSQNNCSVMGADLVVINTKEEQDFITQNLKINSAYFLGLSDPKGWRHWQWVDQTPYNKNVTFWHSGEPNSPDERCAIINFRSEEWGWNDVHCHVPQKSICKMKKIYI
Experimental: as §1

[3] = target: T3, Human BDCA2 Fc recombinant protein (human); assay: ELISA, coated humanBDCA2 Fc
T3 construct: Human IgG1 Fc N-terminal of the BDCA2 extracellular domain (Asn45-Ile213), fused by a linker; also called BDCA2-Fc protein
Experimental: HumanBDCA2 Fc protein or cynoBDCA2 His protein was diluted with PBS to 1 μg/mL and added to ELISA microplates at 100 μL/well and incubated at 4° C. overnight. The plates were blocked with ELISA blocking solution (PBS phosphate buffer with 1% BSA, pH 7.4, the percentages representing mass percentages) at 37° C. for 2 hours. Sequential 10-fold serial dilutions of antibodies were added at 8 concentrations (0.0001 nM-100 nM, including 0 point control) in total at 100 μL/well. The plates were incubated at 37° C. for 1 hour, then washed 3 times and after anti-mouse IgG (Fab specific)-HRP (Sigma, A3682; 1: 5000 dilution) secondary antibodies were added at 100 μL/well, were incubated at 37° C. for 1 h. The plates were washed 3 times, TMB development fluid (EL0009, Huzhou Ying Chuang Biotechnology) was added at 100 μL/well and 50 μL 1N hydrochloric acid was added after incubation at 37° C. for 10 min to stop the development reaction. OD450 nm values were read with ELISA plate reader and the curve was fitted with GraphPad Prism6, and EC₅₀ values were calculated.

human BDCA2 [4] = target: T1, human BDCA2; assay: cell-based or functional assay
human BDCA2 [5] = target: T1, human BDCA2; assay: FACS on CHOK1-hBDCA2 cells; EC50 table under the plot, unit from the x axis (nM)
Experimental: as §1

cynomolgus BDCA2 [6] = target: T2, cynomolgus BDCA2; assay: FACS on 293F-cynoBDCA2 cells; EC50 table under the plot, unit from the x axis (nM)
Experimental: as §1

human FcγRIIA (H167) [7] = target: T4, human FcγRIIA (H167) (human, UniProt P12318 36-218, limits assumed, biotinylated (site not stated)); assay: SPR (BIAcore 8K), biotinylated FcγRIIA (H167) on SA chip, antibody as analyte, 1:1 binding
T4 construct: also called Fey RIIA (H167)
T4 sequence (looked up): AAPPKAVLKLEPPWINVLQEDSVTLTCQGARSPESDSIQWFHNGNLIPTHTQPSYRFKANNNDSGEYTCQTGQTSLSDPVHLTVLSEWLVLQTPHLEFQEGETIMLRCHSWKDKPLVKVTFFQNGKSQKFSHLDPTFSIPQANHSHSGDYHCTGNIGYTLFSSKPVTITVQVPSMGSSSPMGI
Experimental: (§2) Antibody kinetics or affinity parameters were measured using BIAcore 8K and freshly fixed biotinylated human Fe γ RIIA(R167)/Fc γ RIIA (H167) SA chips. The experiment was run at 25° C. with a running buffer of 1×HBS-EP+(10 mM HEPES pH 7.4, 150 mM NaCl, 3 mM EDTA, 0.05% Surfactant P20). […] The binding and dissociation times of the antibody were 60 and 90 seconds, respectively. Two zero concentration samples are used to remove background signals. The sample was injected in a multi cycle manner, the analyte can be fully dissociated from the chip surface at the end of each cycle, and no regeneration step was applied. Data analysis was perform using Biacore Insight Evaluation Software (Version 2.0.15.12933). After deducting the reference channel (flow cell 1) and two zero concentration signals, affinity analysis was performed using a 1:1 binding model or steady-state model for curve fitting and calculation of kinetic parameters.

human FcγRIIA (R167) [8] = target: T5, human FcγRIIA (R167) (human, UniProt P12318 36-218, limits assumed, biotinylated (site not stated)); assay: SPR (BIAcore 8K), biotinylated FcγRIIA (R167) on SA chip, antibody as analyte, 1:1 binding
T5 construct: also called Fe γ RIIA(R167); Fcγ RIJA (R167)
T5 sequence (looked up): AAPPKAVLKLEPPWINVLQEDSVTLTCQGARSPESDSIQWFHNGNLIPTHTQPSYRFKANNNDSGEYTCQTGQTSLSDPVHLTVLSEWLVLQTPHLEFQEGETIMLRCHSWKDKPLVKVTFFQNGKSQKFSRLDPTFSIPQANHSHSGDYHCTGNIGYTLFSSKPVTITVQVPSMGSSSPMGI
Experimental: as §2

human FcγRIIA (H167) [9] = target: T4, human FcγRIIA (H167); assay: SPR, FcγRIIA (H167); against the wild-type Fc antibody Hu033-03
Experimental: as §2

human FcγRIIA (R167) [10] = target: T5, human FcγRIIA (R167); assay: SPR, FcγRIIA (R167); against the wild-type Fc antibody Hu033-03
Experimental: as §2

B5: mAb002 (antibody, V domains shown)
VH: QIQLVQSGPELKKPGETVKISCRASGYSFTDYSMHWVKQAPGKGLKWVGWINTETGEPTYADDFKGRFALSLETSATSAYLQINNLKNEDTATYFCARGGDGFPYWYFNVWGAGTTVTVSS
VL: DIVLTQSPTSLAVSLGQRTNISCRASQSVSTSSNSYIHWYQQKPGQPPKLLIKYASNLDSGVPARFSGSGSGTDFTLNIHPVEEEDTSTYYCQHSWEIPFTFGSGTKLEIK
notes: Mouse hybridoma antibody
EC50 (human BDCA2 [5]): 1.89 nM | EC50 (cynomolgus BDCA2 [6]): 7.05 nM

B6: mAb026 (antibody, V domains shown)
VH: DVQLQESGPGLVKPSQSLSLTCSVTGYSITSAYYWNWIRQFPGHKLEWMGYISYDGSNNYNPSLKNRISITRDTSKNQFFLKLNSVTTEDTATYHCARGVDYPNAIDWWGQGTSLTVSS
VL: DIVLTQSPTSLTVSLGQRATISCRASESVSIHGTHLMHWYQQKPGQPPKLLIYVASYLESGVPARFSGSGSETDFSLNIHPVEEEDAATYFCQQSFEDPWTFGGGTKLEIK
notes: Mouse hybridoma antibody
EC50 (human BDCA2 [1]): 0.773 nM | EC50 (cynomolgus BDCA2 [2]): 2.49 nM | EC50 [3]: < 0.3 nM

B7: Hu033-03-T1 (antibody, human IgG1, kappa)
heavy: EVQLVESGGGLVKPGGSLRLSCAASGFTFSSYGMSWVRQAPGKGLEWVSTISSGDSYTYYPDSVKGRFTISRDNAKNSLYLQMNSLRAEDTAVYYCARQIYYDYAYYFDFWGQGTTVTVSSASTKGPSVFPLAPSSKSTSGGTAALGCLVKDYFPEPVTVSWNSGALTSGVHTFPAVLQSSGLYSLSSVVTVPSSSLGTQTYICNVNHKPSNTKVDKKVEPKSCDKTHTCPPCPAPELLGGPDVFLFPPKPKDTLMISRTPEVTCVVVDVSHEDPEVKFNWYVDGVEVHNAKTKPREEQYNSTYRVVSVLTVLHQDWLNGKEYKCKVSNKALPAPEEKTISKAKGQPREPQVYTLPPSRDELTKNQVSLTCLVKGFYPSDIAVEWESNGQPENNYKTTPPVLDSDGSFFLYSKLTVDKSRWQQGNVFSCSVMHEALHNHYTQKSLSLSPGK
light: DIVLTQSPASLAVSPGQRATITCRASESVSFRTSHLMHWYQQKPGQPPKLLIYGASNLESGVPARFSGSGSETDFTLTINPVEAEDTANYFCQQSIEDPPTFGGGTKVEIKRTVAAPSVFIFPPSDEQLKSGTASVVCLLNNFYPREAKVQWKVDNALQSGNSQESVTEQDSKDSTYSLSSTLTLSKADYEKHKVYACEVTHQGLSSPVTKSFNRGEC
notes: Fc-mutated Hu033-03 (IgG1)
Kd (human FcγRIIA (H167) [7]): 490 nM | koff (human FcγRIIA (H167) [7]): 0.23 s⁻¹ | kon (human FcγRIIA (H167) [7]): 470000 M⁻¹ s⁻¹ | Kd (human FcγRIIA (R167) [8]): 310 nM | koff (human FcγRIIA (R167) [8]): 0.232 s⁻¹ | kon (human FcγRIIA (R167) [8]): 750000 M⁻¹ s⁻¹ | Multiple of affinity (human FcγRIIA (H167) [9]): 2.3 fold | Multiple of affinity (human FcγRIIA (R167) [10]): 4 fold

B8: Hu033-03-T2 (antibody, human IgG1, kappa)
heavy: EVQLVESGGGLVKPGGSLRLSCAASGFTFSSYGMSWVRQAPGKGLEWVSTISSGDSYTYYPDSVKGRFTISRDNAKNSLYLQMNSLRAEDTAVYYCARQIYYDYAYYFDFWGQGTTVTVSSASTKGPSVFPLAPSSKSTSGGTAALGCLVKDYFPEPVTVSWNSGALTSGVHTFPAVLQSSGLYSLSSVVTVPSSSLGTQTYICNVNHKPSNTKVDKKVEPKSCDKTHTCPPCPAPELLAGPDVFLFPPKPKDTLMISRTPEVTCVVVDVSHEDPEVKFNWYVDGVEVHNAKTKPREEQYNSTYRVVSVLTVLHQDWLNGKEYKCKVSNKALPAPEEKTISKAKGQPREPQVYTLPPSRDELTKNQVSLTCLVKGFYPSDIAVEWESNGQPENNYKTTPPVLDSDGSFFLYSKLTVDKSRWQQGNVFSCSVMHEALHNHYTQKSLSLSPGK
light: DIVLTQSPASLAVSPGQRATITCRASESVSFRTSHLMHWYQQKPGQPPKLLIYGASNLESGVPARFSGSGSETDFTLTINPVEAEDTANYFCQQSIEDPPTFGGGTKVEIKRTVAAPSVFIFPPSDEQLKSGTASVVCLLNNFYPREAKVQWKVDNALQSGNSQESVTEQDSKDSTYSLSSTLTLSKADYEKHKVYACEVTHQGLSSPVTKSFNRGEC
notes: Fc-mutated Hu033-03 (IgG1)
Kd (human FcγRIIA (H167) [7]): 103 nM | koff (human FcγRIIA (H167) [7]): 0.0585 s⁻¹ | kon (human FcγRIIA (H167) [7]): 570000 M⁻¹ s⁻¹ | Kd (human FcγRIIA (R167) [8]): 45.8 nM | koff (human FcγRIIA (R167) [8]): 0.0899 s⁻¹ | kon (human FcγRIIA (R167) [8]): 1.96e+06 M⁻¹ s⁻¹ | Multiple of affinity (human FcγRIIA (H167) [9]): 10 fold | Multiple of affinity (human FcγRIIA (R167) [10]): 13.7 fold

Now from value to binder:

EC50 (human BDCA2 [1]): 0.251 nM | EC50 (cynomolgus BDCA2 [2]): 0.28 nM | EC50 [3]: < 0.3 nM
B1: mAb028 (antibody, V domains shown)
VH: DVQLQESGPGLVKPSQSLSLTCSVTGYSISSGYYWNWIRQFPGNKLECMGYISYDGSNYYNPSLKNRISITRDTSKNQFFLSLNSVTTEDTATYFCVRGGDYDDGGFAYWGQGTLVTVSA
VL: DIQMTQSPASLSASVGETVTITCRASGNIHNYLAWYQQKQGKSPQLLVYNAKTLADGVPSRFSGSGSETQYSLKINSLQPEDFGNYFCQHFWIIPYTFGGGTKLEIK
notes: Mouse hybridoma antibody

EC50 (human BDCA2 [1]): 0.225 nM | EC50 (cynomolgus BDCA2 [2]): 0.359 nM | EC50 [3]: < 0.3 nM
B2: mAb032 (antibody, V domains shown)
VH: DVQLQESGPGLVKPSQSLSLTCSVTGYSITSGYYWNWIRQFPGNKLECMGYISYDGSNYYNPSLKNRISITRDTSKNQFFLSLNSVTTEDTATYFCVRGGDYDDGGFAYWGQGTLVTVSA
VL: DIQMTQSPASLSASVGETVTITCRASGNIHNYLAWYQQKQGKSPQLLVYNAKTLADGVPSRFSGSGSETQYSLKINSLQPEDFGNYFCQHFWIIPYTFGGGTKLEIK
notes: Mouse hybridoma antibody

IC50 for inhibiting cytokine IFNα release, CpG-A stimulated human PBMC (human BDCA2 [4]): 0.0867 nM | EC50 (human BDCA2 [5]): 1.83 nM | EC50 (cynomolgus BDCA2 [6]): 2.11 nM
B3: mAb005 (antibody, V domains shown)
VH: QVQLKQSGPGLVQPSQSLSITCTVSGFSLTNYGVHWVRQSPGKGLEWLGVIWSGESTDYDAAFISRLSISKDNSKSQVFFKMNSLQADDSAIYYCARRRSHYYGYVMDYWGQGTSVTVSS
VL: DIVLTQSPASLAVSLGQRATISCKASQSIDYDGIGYLNWYQHKPGQPPKLLIYAASNLESGIPARFSGSGSGTDFTLNIHPVEEEDAATYYCQQSNEDPPTFGSGTKLEIK
notes: Mouse hybridoma antibody

EC50 (human BDCA2 [5]): 1.37 nM | EC50 (cynomolgus BDCA2 [6]): 6.08 nM
B4: mAb001 (antibody, V domains shown)
VH: QIQLVQSGPELKKPGETVKISCKASGYTFTDFSMHWVKQAPGKGLKWMGWINTETGEPTYADDFKGRFAFSLETSASTAFLQINNLKNDDTTTYFCSRGGDGHPYWYFAVWGAGTTVTVSS
VL: DIVLTQSPASLAVSLGQRATISCRASQSVSTSSYSYMHWYQQKPGQPPKLLIKYASILESGVPARFSGSGSGTDFTLNIHPVEEEDTATYYCQHSWEIPFTFGSGTKLEIK
notes: Mouse hybridoma antibody
